Measured values as given in publication doi:10.1101/2025.10.03.680245 (bioRxiv, 2025).

B1: MBP-Bud4ΔN-HALO (domain or fragment)
chain: MKPSDYISIWHIQEEEIKSNSPESIANSQFSQQSSITTASTVDSKKDNGSTSFKFKPRIVSRSRIYNPKSRVSSLNYYDNEDYILSNSEWNALDPMRRNTLISKRIQDNIRTQKGHAPLIRPSIMKLNGEDSGFQNHFLEVEQPQEHENIPLSTHLSEQDITTNVGLDEQKLPTNTQDEAEISIREIESAGDITFNRGDLLSLSFDEELGQDFANFLDALDHDSTSFNHGPDDSSSFQRDSSKKSFNSLWESSYELKPPPSIRKQPIAPDVLQKLLESDTKDDADLEKIREERITEPRTGLGIGMLKTPVKDVSIALAASIKGYEASFSDTDSRPEGMNNSDAITLNMFDDFEEDKMTPSTPVRSISPIKRHVSSPFKVVKAGNKQENNEINIKAEEEIEPMTQQETDGLKQDIPPLLAQTKDNVEAKEETITQLEEPQDVEQEFPDMGTLYLSIKAISTLALYGTKSHRATYAIVFDNGENVVQTPWESLPYDGNIRINKEFELPIDFKGKAETSSASSERDSYKKCVITLKCKYEKPRHELVEIVDKVPVGKSFFGKTKYKFEKKYVQKKPKQDEWDYLFAQDGSFARCEIEINEEFLKNVAFNTSHMHYNMINKWSRIADKIHGSKRLYELPRKAPHKVASLDVEACFLERTSAFEQFPKQFSLVNKIVSKYKLQQNIYKEGYLLQDGGDLKGKIENRFFKLHGSQLSGYHEISRKAKIDINLLKVTKVLRNEDIQADNGGQRNFTDWVLFNECFQLVFDDGERITFNAECSNEEKSDWYNKLQEVVELNVFHQPWVKKYCEKLAEEEKTRTTGHNLKQDFN
modifications: HaloTag Alexa-Fluor 660 fluorescent ligand on the HALO tag
B2: Recombinant Cdc11-capped septin octamers (complex)
chain 1: MSGIIDASSALRKRKHLKRGITFTVMIVGQSGSGRSTFINTLCGQQVVDTSTTILLPTDTSTEIDLQLREETVELEDDEGVKIQLNIIDTPGFGDSLDNSPSFEIISDYIRHQYDEILLEESRVRRNPRFKDGRVHCCLYLINPTGHGLKEIDVEFIRQLGSLVNIIPVISKSDSLTRDELKLNKKLIMEDIDRWNLPIYNFPFDEDEISDEDYETNMYLRTLLPFAIIGSNEVYEMGGDVGTIRGRKYPWGILDVEDSSISDFVILRNALLISHLHDLKNYTHEILYERYRTEALSGESVAAESIRPNLTKLNGSSSSSTTTRRNTNPFKQSNNINNDVLNPASDMHGQSTGENNETYMTREEQIRLEEERLKAFEERVQQELLLKRQELLQREKELREIEARLEKEAKIKQEE
chain 2: MSAATATAAPVPPPVGISNLPNQRYKIVNEEGGTFTVMLCGESGLGKTTFINTLFQTVLKRADGQQHRQEPIRKTVEIDITRALLEEKHFELRVNVIDTPGFGDNVNNNKAWQPLVDFIDDQHDSYMRQEQQPYRTKKFDLRVHAVLYFIRPTGHGLKPIDIETMKRLSTRANLIPVIAKADTLTAQELQQFKSRIRQVIEAQEIRIFTPPLDADSKEDAKSGSNPDSAAVEHARQLIEAMPFAIVGSEKKFDNGQGTQVVARKYPWGLVEIENDSHCDFRKLRALLLRTYLLDLISTTQEMHYETYRRLRLEGHENTGEGNEDFTLPAIAPARKLSHNPRYKEEENALKKYFTDQVKAEEQRFRQWEQNIVNERIRLNGDLEEIQGKVKKLEEQVKSLQVKKSHLK
chain 3: MSLKEEQVSIKQDPEQEERQHDQFNDVQIKQESQDHDGVDSQYTNGTQNDDSERFEAAESDVKVEPGLGMGITSSQSEKGQVLPDQPEIKFIRRQINGYVGFANLPKQWHRRSIKNGFSFNLLCVGPDGIGKTTLMKTLFNNDDIEANLVKDYEEELANDQEEEEGQGEGHENQSQEQRHKVKIKSYESVIEENGVKLNLNVIDTEGFGDFLNNDQKSWDPIIKEIDSRFDQYLDAENKINRHSINDKRIHACLYFIEPTGHYLKPLDLKFMQSVYEKCNLIPVIAKSDILTDEEILSFKKTIMNQLIQSNIELFKPPIYSNDDAENSHLSERLFSSLPYAVIGSNDIVENYSGNQVRGRSYPWGVIEVDNDNHSDFNLLKNLLIKQFMEELKERTSKILYENYRSSKLAKLGIKQDNSVFKEFDPISKQQEEKTLHEAKLAKLEIEMKTVFQQKVSEKEKKLQKSETELFARHKEMKEKLTKQLKALEDKKKQLELSINSASPNVNHSPVPTKKKGFLR
chain 4: MDPLSSVQPASYVGFDTITNQIEHRLLKKGFQFNIMVVGQSGLGKSTLINTLFASHLIDSATGDDISALPVTKTTEMKISTHTLVEDRVRLNINVIDTPGFGDFIDNSKAWEPIVKYIKEQHSQYLRKELTAQRERFITDTRVHAILYFLQPNGKELSRLDVEALKRLTEIANVIPVIGKSDTLTLDERTEFRELIQNEFEKYNFKIYPYDSEELTDEELELNRSVRSIIPFAVVGSENEIEINGETFRGRKTRWSAINVEDINQCDFVYLREFLIRTHLQDLIETTSYIHYEGFRARQLIALKENANSRSSAHMSSNAIQR

Tests used:
[1] = target: GFP-tagged Cdc11-capped recombinant septin octamers (budding yeast (S. cerevisiae), UniProt P32458;P32468;P32457;P25342); test: fluorescence microscopy of purified proteins in solution
[2] = target: the molecule itself; test: negative-stain transmission electron microscopy

| Binder | binding result [1] | binding result [2] |
| --- | --- | --- |
| B1 | binds | – |
| B2 | – | binds |
